This is an account of results in US20150071856A1, “ANTAGONISTIC PEPTIDES FOR FRIZZLED-1 AND FRIZZLED-2” (Universiteit Maastricht, priority 2013, published 2015).

One assay deals with canonical Wnt signaling. As to the kind of experiment: Activity assay (Example 1): TOPflash luciferase reporter in HEK (HEK293-superTOPflash) cells, receptor not specified. It is filed as cell-based, human. To be noted: no Fzd transfection. (In general: A reporter such as luciferase makes a cellular process visible.)
The subject of a further assay is Fzd-1 and -2. The assay can be described thus: Binding of rhodamine-labeled UM206 to frozen sections of mouse kidney and small intestine and its blocking. The following applies: UM206-rhodamine 1.10^−8 M; UM207 1.10^−7 M, Wnt3a 1.10^−8 M. Here is the method: Specificity of the binding site was confirmed by prior incubation of the tissue sections with UM207 (1.10^−7 M) or recombinant Wnt3a (1.10^−8 M).
One-half of the hearts of the mice was embedded in paraffin and cut in 4 μm sections. The paraffin sections were rehydrated and washed in PBS. One section was stained with AZAN, allowing an accurate determination of the infarct size. To visualize the myofibroblasts in the infarct area, the sections were incubated with an antibody directed against α-smooth muscle actin (Sigma-Aldrich), followed by incubation with the peroxidase-conjugated secondary antibody (Vector laboratories). Nuclei were visualized by hematoxylin. Photos were taken with a Leica (CTR500, 63×/0.85) camera and analyzed with the Quantimet program (QWin/QGo). An examiner blinded to the groups of the animals obtained all measurements. For the experiments with Rhodamine-labeled UM206, frozen sections (4 μm) of mouse kidney and small intestine were used.

For the next assay, the target named is T1, frizzled-2 (rFzd-2) (Rattus norvegicus, UniProt Q08464).
T1 construct: expressed in transfected cells; host or cells: HEK293 superTOPflash (transient, Fugene6, pcDNA3.1/hygro)
T1 sequence (Q08464 29-570): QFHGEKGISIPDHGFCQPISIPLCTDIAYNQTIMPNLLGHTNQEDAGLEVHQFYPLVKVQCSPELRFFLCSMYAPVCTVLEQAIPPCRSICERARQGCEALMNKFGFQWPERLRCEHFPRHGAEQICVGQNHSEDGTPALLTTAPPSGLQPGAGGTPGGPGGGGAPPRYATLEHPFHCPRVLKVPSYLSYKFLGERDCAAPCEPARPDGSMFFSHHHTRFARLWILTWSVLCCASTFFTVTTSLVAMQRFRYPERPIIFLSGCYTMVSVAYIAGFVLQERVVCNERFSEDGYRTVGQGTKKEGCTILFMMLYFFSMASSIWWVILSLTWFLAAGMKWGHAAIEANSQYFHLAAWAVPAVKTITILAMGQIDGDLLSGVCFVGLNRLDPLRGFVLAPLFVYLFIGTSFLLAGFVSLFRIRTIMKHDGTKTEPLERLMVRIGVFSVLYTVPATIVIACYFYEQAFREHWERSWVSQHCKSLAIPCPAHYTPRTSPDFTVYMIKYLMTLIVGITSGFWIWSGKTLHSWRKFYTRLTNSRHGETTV
The assay can be described thus: Activity assay: luciferase reporter in HEK superTOPflash cells transfected with frizzled-2. It is filed as cell-based. The following applies: FIG. 3. Here is the method: Human embryonic kidney (HEK) cells were used for screening. These cells have a luciferase construct stably transfected into the genome (see FIG. 2A), such that when the frizzled receptor is activated and β-catenin is increased, the luciferase is activated by transcription and light can be measured.
The peptides were tested by transfecting the frizzled-1 or the frizzled-2 receptor and addition of UM206(S-S) to the cell culture. For testing antagonistic activity, UM206 was added and the natural ligand Wnt3a was added, which is a natural stimulus for the canonical pathway.
Day 2: Transfection 12-Well Plates • heat Fugene6 and DNA 15 minutes at RT • 2 ml serum-free medium in tube • add 3 μl fugene • add 2 μg DNA • incubate 30 minutes at RT • wash with PBS • add 50 μl transfectiemix • add 1 ml antibiotica-free medium
Day 3: Add Conditioned Medium or UM206
Day 4: Luciferase Activity Measurements • remove medium • wash with PBS • add 500 μl ⅕ lysisbuffer • shake for 60 minutes • centrifuge in tube • 20 μl lysaat and 50 μl luciferase in new tube for measurement • vortex • measure
Three areas of high homology that contained two cysteines are underlined (UM207), (UM208) and (UM206). In FIGS. 9B through 9D, the inhibitory effect of these three peptides on Wnt3a-induced luciferase activity in HEK293-superTOPflash is shown. […]

B1: Wnt3a: natural ligand of frizzled, natural stimulus for the canonical pathway; recombinant or conditioned medium (protein)
chain: SYPIWWSLAVGPQYSSLGSQPILCASIPGLVPKQLRFCRNYVEIMPSVAEGIKIGIQECQHQFRGRRWNCTTVHDSLAIFGPVLDKATRESAFVHAIASAGVAFAVTRSCAEGTAAICGCSSRHQGSPGKGWKWGGCSEDIEFGGMVSREFADARENRPDARSAMNRHNNEAGRQAIASHMHLKCKCHGLSGSCEVKTCWWSQPDFRAIGDFLKDKYDSASEMVVEKHRESRGWVETLRPRYTYFKVPTERDLVYYEASPNFCEPNPETGSFGTRDRTCNVSSHGIDGCDLLCCGRGHNARAERRREKCRCVFHWCCYVSCQECTRVYDVHTCK
As to B1, the “increase of luciferase activity” value in the assay with canonical Wnt signaling is given as about 450 fold. Besides, the “blocking of UM206-rhodamine binding by prior incubation” value in the assay on Fzd-1 and -2 is given as “completely abolished the binding of UM206-rhodamine”. Also, in the assay with frizzled-2 (rFzd-2), the “concentration-dependent increase of the luciferase activity, in combination with frizzled-2” value is “twelve-fold”.
